Laboratory results from US20250084126A1, “PEPTIDE AND COMPOSITION” (OSAKA UNIVERSITY, priority 2021, published 2025).

How the values were obtained:
[1] = test system: exposed pulp of rat maxillary first molars; assay: Direct pulp capping experiment using S100-A7 and S100-A7 reacted with MMP20; format: in vivo; details: rat molar, gelatin sponge with 20 μl of 1 μg/ml in PBS, 4 weeks after pulp capping, n=3
Description: Eight-week-old male Wistar rats were injected intraperitoneally with pentobarbital sodium (SomnoPentyl (Trade Mark), Kyoritsu Seiyaku Corporation, Tokyo) (30 mg/kg) as general anesthesia, and carprofen (Rimadyl®, Pfizer, USA) (3 mg/kg) was administered for pain relief. The tooth to be treated was isolated by rubber dam dry field technique, and a surface and surrounding tissue of the tooth were cleaned with an alcohol-soaked cotton ball, and then a cavity was formed using the following method based on the report by Komichi et al. [Non Patent Literature 1]. […] Maxillas, including the test teeth, were then resected and soft tissues were removed, and evaluated by the following methods. […]
Image analysis using the micro-CT (R-mCT2™M, Rigaku Corporation, Tokyo) was performed for quantitative evaluation of the formed tertiary dentin in the samples after the direct pulp capping. […] A CT value equivalent to that of the primary dentin was set as a threshold for extracting the tertiary dentin, and the area of the newly formed tertiary dentin was calculated from a binarized image. The area of the newly formed tertiary dentin was measured in each section, and the volume of the newly formed tertiary dentin was calculated by summing all of the measurements. […]

pulp cells = details: reported in Non Patent Literature 1; cited from earlier work
exposed pulp = details: rat in vivo, reported in Non Patent Literature 1; cited from earlier work

B1: S100-A7: Protein S100-A7 (PROSPEC, Israel), human-derived Protein S100 (protein, UniProt P31151 2-101, looked up)
Protein S100-A7: SNTQAERSIIGMIDMFHKYTRRDDKIEKPSLLTMMKENFPNFLSACDKKGTNYLADVFEKKDKNEDKKIDFSEFLSLLGDIATDYHKQSHGAAPCSGGSQ
[1]
  tertiary dentin formation (micro-CT analysis): completely covering the exposed region of pulp
Pulp cells
  effect on pulp cells in vitro: activates proliferation, differentiation, and mineralization abilities
Exposed pulp
  tertiary dentin induction in the direct pulp capping experiment: completely covers the surface of the exposed pulp
